Bridge positions count the residues as written; N and C are the ends. Square brackets hold non-standard residues; d marks the D form. Ends that are not written are not given here. * marks the point of attachment. Palmitoyl = CCCCCCCCCCCCCCCC(=O)*; NMeI = CC[C@H](C)[C@H](NC)C(=O)O; Dab = NCC[C@H](N)C(=O)O
Experiments:
[1] = target: human adrenomedullin-receptor (human, UniProt Q16602 23-461); assay: cell-based or functional assay
[2] = target: CLR fused to EYFP with RAMP2 fused to ECFP; assay: cell-based or functional assay
CLR fused to EYFP with RAMP2 fused to ECFP, sequence (Q16602 whole entry, chain 1 of 2, the tested form may be a part): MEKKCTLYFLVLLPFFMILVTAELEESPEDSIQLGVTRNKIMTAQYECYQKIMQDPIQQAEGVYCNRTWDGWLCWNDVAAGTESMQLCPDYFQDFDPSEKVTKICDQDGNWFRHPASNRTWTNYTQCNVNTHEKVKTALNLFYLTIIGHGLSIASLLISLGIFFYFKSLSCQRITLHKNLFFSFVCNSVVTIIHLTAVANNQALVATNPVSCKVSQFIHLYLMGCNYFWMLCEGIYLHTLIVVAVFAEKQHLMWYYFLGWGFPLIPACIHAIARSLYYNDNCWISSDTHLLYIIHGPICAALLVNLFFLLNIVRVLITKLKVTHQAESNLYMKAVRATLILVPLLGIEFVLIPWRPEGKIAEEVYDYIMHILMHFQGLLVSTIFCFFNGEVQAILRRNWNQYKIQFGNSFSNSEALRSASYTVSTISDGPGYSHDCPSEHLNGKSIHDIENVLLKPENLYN
CLR fused to EYFP with RAMP2 fused to ECFP, sequence (O60895 whole entry, chain 2 of 2, further chain, the tested form may be a part): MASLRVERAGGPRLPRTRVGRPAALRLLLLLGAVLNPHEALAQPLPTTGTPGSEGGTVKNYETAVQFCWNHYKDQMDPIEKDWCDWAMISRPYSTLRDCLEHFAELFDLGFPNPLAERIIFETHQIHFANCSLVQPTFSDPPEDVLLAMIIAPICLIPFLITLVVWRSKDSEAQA

human adrenomedullin-receptor, sequence (Q16602 23-461): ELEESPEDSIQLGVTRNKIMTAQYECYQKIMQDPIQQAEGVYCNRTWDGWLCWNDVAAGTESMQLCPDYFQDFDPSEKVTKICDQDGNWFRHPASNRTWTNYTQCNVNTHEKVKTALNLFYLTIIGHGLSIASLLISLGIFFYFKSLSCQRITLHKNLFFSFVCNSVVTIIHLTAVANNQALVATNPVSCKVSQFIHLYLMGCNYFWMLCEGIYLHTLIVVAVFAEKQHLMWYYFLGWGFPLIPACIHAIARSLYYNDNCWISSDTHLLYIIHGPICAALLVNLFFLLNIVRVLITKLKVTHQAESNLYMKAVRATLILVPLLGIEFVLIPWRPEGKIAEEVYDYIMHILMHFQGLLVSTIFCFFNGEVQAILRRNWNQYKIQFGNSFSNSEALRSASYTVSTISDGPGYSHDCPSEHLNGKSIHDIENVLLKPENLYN

Binder | EC50 [nM], aequorin luminescence of CHO adrenomedullin-receptor reporter cells [1] | EC50 [nM], cAMP assay (CRE-luciferase luminescence, HEK293 cells) [2]
GGERFGTKTVQKLAHQIYQFTDKDKDNVAPRSKISPQGY-NH2 (lactam 3-8; N-terminus assumed; SMILES CC[C@H](C)[C@H](NC(=O)[C@H](CCC(N)=O)NC(=O)[C@H](Cc1c[nH]cn1)NC(=O)[C@H](C)NC(=O)[C@H](CC(C)C)NC(=O)[C@H](CCCCN)NC(=O)[C@H](CCC(N)=O)NC(=O)[C@@H](NC(=O)[C@@H](NC(=O)[C@@H]1CCCCNC(=O)CC[C@H](NC(=O)CNC(=O)CN)C(=O)N[C@@H](CCCNC(=N)N)C(=O)N[C@@H](Cc2ccccc2)C(=O)NCC(=O)N[C@@H]([C@@H](C)O)C(=O)N1)[C@@H](C)O)C(C)C)C(=O)N[C@@H](Cc1ccc(O)cc1)C(=O)N[C@@H](CCC(N)=O)C(=O)N[C@@H](Cc1ccccc1)C(=O)N[C@H](C(=O)N[C@@H](CC(=O)O)C(=O)N[C@@H](CCCCN)C(=O)N[C@@H](CC(=O)O)C(=O)N[C@@H](CCCCN)C(=O)N[C@@H](CC(=O)O)C(=O)N[C@@H](CC(N)=O)C(=O)N[C@H](C(=O)N[C@@H](C)C(=O)N1CCC[C@H]1C(=O)N[C@@H](CCCNC(=N)N)C(=O)N[C@@H](CO)C(=O)N[C@@H](CCCCN)C(=O)N[C@H](C(=O)N[C@@H](CO)C(=O)N1CCC[C@H]1C(=O)N[C@@H](CCC(N)=O)C(=O)NCC(=O)N[C@@H](Cc1ccc(O)cc1)C(N)=O)[C@@H](C)CC)C(C)C)[C@@H](C)O) [[G^14, (E^16, K^21)lac]ADM(14-52)] | 20.5 nM | 31 nM
GGERFGT[Dab]TVQKLAHQIYQFTDKDKDNVAPRSKISPQGY-NH2 (lactam 3-8) [[G^14, (E^16, Dab^21)lac]ADM(14-52)] | 19.6 nM | 41 nM
GG[Dab]RFGTETVQKLAHQIYQFTDKDKDNVAPRSKISPQGY-NH2 (lactam 3-8; N-terminus assumed; SMILES CC[C@H](C)[C@H](NC(=O)[C@H](CCC(N)=O)NC(=O)[C@H](Cc1c[nH]cn1)NC(=O)[C@H](C)NC(=O)[C@H](CC(C)C)NC(=O)[C@H](CCCCN)NC(=O)[C@H](CCC(N)=O)NC(=O)[C@@H](NC(=O)[C@@H](NC(=O)[C@@H]1CCC(=O)NCC[C@H](NC(=O)CNC(=O)CN)C(=O)N[C@@H](CCCNC(=N)N)C(=O)N[C@@H](Cc2ccccc2)C(=O)NCC(=O)N[C@@H]([C@@H](C)O)C(=O)N1)[C@@H](C)O)C(C)C)C(=O)N[C@@H](Cc1ccc(O)cc1)C(=O)N[C@@H](CCC(N)=O)C(=O)N[C@@H](Cc1ccccc1)C(=O)N[C@H](C(=O)N[C@@H](CC(=O)O)C(=O)N[C@@H](CCCCN)C(=O)N[C@@H](CC(=O)O)C(=O)N[C@@H](CCCCN)C(=O)N[C@@H](CC(=O)O)C(=O)N[C@@H](CC(N)=O)C(=O)N[C@H](C(=O)N[C@@H](C)C(=O)N1CCC[C@H]1C(=O)N[C@@H](CCCNC(=N)N)C(=O)N[C@@H](CO)C(=O)N[C@@H](CCCCN)C(=O)N[C@H](C(=O)N[C@@H](CO)C(=O)N1CCC[C@H]1C(=O)N[C@@H](CCC(N)=O)C(=O)NCC(=O)N[C@@H](Cc1ccc(O)cc1)C(N)=O)[C@@H](C)CC)C(C)C)[C@@H](C)O) [[G^14, (Dab^16, E^21)lac]ADM(14-52)] | 34 nM | 84 nM
K(Palmitoyl)GERFGTKTVQKLAHQIYQFTDKDKDNVAPRSKISPQGY-NH2 (lactam 3-8; N-terminus assumed; SMILES CCCCCCCCCCCCCCCC(=O)NCCCC[C@H](N)C(=O)NCC(=O)N[C@H]1CCC(=O)NCCCC[C@@H](C(=O)N[C@H](C(=O)N[C@H](C(=O)N[C@@H](CCC(N)=O)C(=O)N[C@@H](CCCCN)C(=O)N[C@@H](CC(C)C)C(=O)N[C@@H](C)C(=O)N[C@@H](Cc2c[nH]cn2)C(=O)N[C@@H](CCC(N)=O)C(=O)N[C@H](C(=O)N[C@@H](Cc2ccc(O)cc2)C(=O)N[C@@H](CCC(N)=O)C(=O)N[C@@H](Cc2ccccc2)C(=O)N[C@H](C(=O)N[C@@H](CC(=O)O)C(=O)N[C@@H](CCCCN)C(=O)N[C@@H](CC(=O)O)C(=O)N[C@@H](CCCCN)C(=O)N[C@@H](CC(=O)O)C(=O)N[C@@H](CC(N)=O)C(=O)N[C@H](C(=O)N[C@@H](C)C(=O)N2CCC[C@H]2C(=O)N[C@@H](CCCNC(=N)N)C(=O)N[C@@H](CO)C(=O)N[C@@H](CCCCN)C(=O)N[C@H](C(=O)N[C@@H](CO)C(=O)N2CCC[C@H]2C(=O)N[C@@H](CCC(N)=O)C(=O)NCC(=O)N[C@@H](Cc2ccc(O)cc2)C(N)=O)[C@@H](C)CC)C(C)C)[C@@H](C)O)[C@@H](C)CC)C(C)C)[C@@H](C)O)NC(=O)[C@H]([C@@H](C)O)NC(=O)CNC(=O)[C@H](Cc2ccccc2)NC(=O)[C@H](CCCNC(=N)N)NC1=O) [[K^14(PAM), (E^16, K^21)lac]ADM(14-52)] | 0.81 nM | 29 nM
K(Palmitoyl)GKRFGTETVQKLAHQIYQFTDKDKDNVAPRSKISPQGY-NH2 (lactam 3-8; N-terminus assumed; SMILES CCCCCCCCCCCCCCCC(=O)NCCCC[C@H](N)C(=O)NCC(=O)N[C@H]1CCCCNC(=O)CC[C@@H](C(=O)N[C@H](C(=O)N[C@H](C(=O)N[C@@H](CCC(N)=O)C(=O)N[C@@H](CCCCN)C(=O)N[C@@H](CC(C)C)C(=O)N[C@@H](C)C(=O)N[C@@H](Cc2c[nH]cn2)C(=O)N[C@@H](CCC(N)=O)C(=O)N[C@H](C(=O)N[C@@H](Cc2ccc(O)cc2)C(=O)N[C@@H](CCC(N)=O)C(=O)N[C@@H](Cc2ccccc2)C(=O)N[C@H](C(=O)N[C@@H](CC(=O)O)C(=O)N[C@@H](CCCCN)C(=O)N[C@@H](CC(=O)O)C(=O)N[C@@H](CCCCN)C(=O)N[C@@H](CC(=O)O)C(=O)N[C@@H](CC(N)=O)C(=O)N[C@H](C(=O)N[C@@H](C)C(=O)N2CCC[C@H]2C(=O)N[C@@H](CCCNC(=N)N)C(=O)N[C@@H](CO)C(=O)N[C@@H](CCCCN)C(=O)N[C@H](C(=O)N[C@@H](CO)C(=O)N2CCC[C@H]2C(=O)N[C@@H](CCC(N)=O)C(=O)NCC(=O)N[C@@H](Cc2ccc(O)cc2)C(N)=O)[C@@H](C)CC)C(C)C)[C@@H](C)O)[C@@H](C)CC)C(C)C)[C@@H](C)O)NC(=O)[C@H]([C@@H](C)O)NC(=O)CNC(=O)[C@H](Cc2ccccc2)NC(=O)[C@H](CCCNC(=N)N)NC1=O) [[K^14(PAM), (K^16,E^21)lac]ADM(14-52)] | > 1000 nM | 156 nM
K(Palmitoyl)GERFGTKTVQKLAHQIYQFTDKDKDNVAPRSK[NMeI]SPQGY-NH2 (lactam 3-8) [[K^14(PAM), (E^16,K^21)lac, N-Me-I^47]ADM(14-52)] | 32 nM | 150 nM
GGCRFGTXTVQKLAHQIYQFTDKDKDNVAPRSKISPQGY (positions 16 and 21 (residues 3 and 8 of the letters) together are cystathionine (C^16→U^21, thioether disulfide bond mimetic); X stands for the printed U at 21; C-terminal amide) [[G^14, (C^16→U^21)]ADM(14-52)] | 0.07 nM | 3.3 nM
GGXRFGTCTVQKLAHQIYQFTDKDKDNVAPRSKISPQGY (positions 16 and 21 (residues 3 and 8 of the letters) together are cystathionine (U^16→C^21, thioether disulfide bond mimetic); X stands for the printed U at 16; C-terminal amide) [[G^14, (U^16→C^21)]ADM(14-52)] | 1.54 nM | 6.8 nM
KGCRFGTXTVQKLAHQIYQFTDKDKDNVAPRSKISPQGY (palmitic acid (PAM) on the N-terminus (alpha-amine of K14); positions 16 and 21 (residues 3 and 8 of the letters) together are cystathionine (C^16→U^21, thioether); X stands for the printed U at 21; C-terminal amide) [PAM[K^14, (C^16→U^21)]ADM(14-52)] | 11 nM | 
KGCRFGTXTVQKLAHQIYQFTDKDKDNVAPRSKISPQGY (palmitic acid (PAM) on the side chain of K14 (residue 1 of the letters); positions 16 and 21 (residues 3 and 8) together are cystathionine (C^16→U^21, thioether); X stands for the printed U at 21; C-terminal amide) [[K^14(PAM), (C^16→U^21)]ADM(14-52)] | 24 nM | 

— US20180022780A1 (Bayer, published 2018)
